Test results published in paper PMC8715544 (JACS Au, 2021).

Molecular target: the molecule itself
Test: SEC

B1: Escherichia coli methionine adenosyltransferase eMAT (enzyme)
chain: MAKHLFTSESVSEGHPDKIADQISDAVLDAILEQDPKARVACETYVKTGMVLVGGEITTSAWVDIEEITRNTVREIGYVHSDMGFDANSCAVLSAIGKQSPDINQGVDRADPLEQGAGDQGLMFGYATNETDVLMPAPITYAHRLVQRQAEVRKNGTLPWLRPDAKSQVTFQYDDGKIVGIDAVVLSTQHSEEIDQKSLQEAVMEEIIKPILPAEWLTSATKFFINPTGRFVIGGPMGDCGLTGRKIIVDTYGGMARHGGGAFSGKDPSKVDRSAAYAARYVAKNIVAAGLADRCEIQVSYAIGVAEPTSIMVETFGTEKVPSEQLTLLVREFFDLRPYGLIQMLDLLHPIYKETAAYGHFGREHFPWEKTDKAQLLRDAAGLK
stoichiometry N: 4
